Measurements published in publication doi:10.1101/580043.

Assays:
[1] = target: MBP-tagged PRG-1 PIWI domain (C. elegans); experiment: MST
[2] = target: Recombinant full-length MBP-tagged DEPS-1 (C. elegans) (UniProt Q9N303); experiment: MST
Recombinant full-length MBP-tagged DEPS-1 (C. elegans), sequence (Q9N303 whole entry): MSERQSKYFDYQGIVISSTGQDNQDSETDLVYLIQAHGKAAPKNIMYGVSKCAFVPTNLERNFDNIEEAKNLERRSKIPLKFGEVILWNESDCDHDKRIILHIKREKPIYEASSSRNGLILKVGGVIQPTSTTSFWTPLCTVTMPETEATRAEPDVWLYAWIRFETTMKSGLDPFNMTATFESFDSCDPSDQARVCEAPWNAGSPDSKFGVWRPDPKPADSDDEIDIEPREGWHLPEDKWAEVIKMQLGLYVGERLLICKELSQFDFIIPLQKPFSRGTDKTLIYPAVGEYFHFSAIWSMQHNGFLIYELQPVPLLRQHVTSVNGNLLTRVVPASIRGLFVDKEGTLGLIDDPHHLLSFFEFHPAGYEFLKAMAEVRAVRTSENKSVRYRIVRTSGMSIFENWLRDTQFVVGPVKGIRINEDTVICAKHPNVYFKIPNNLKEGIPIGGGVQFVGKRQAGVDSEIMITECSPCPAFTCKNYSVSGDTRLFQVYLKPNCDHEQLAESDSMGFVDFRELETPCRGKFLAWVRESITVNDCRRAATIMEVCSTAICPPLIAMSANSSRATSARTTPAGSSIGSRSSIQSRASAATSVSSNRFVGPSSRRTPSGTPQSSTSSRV

MBP-tagged DEPS-1 N-terminal fragment (DEPS-1^frag1) (domain or fragment), sequence (Q9N303 whole entry, the tested form may be a part): as the sequence (Q9N303 whole entry) above

Row | Substance | Kd [1] [nM] | Kd [2] [nM]
1 | MBP-tagged DEPS-1 N-terminal fragment (DEPS-1^frag1) (domain or fragment) | 151 | –
2 | MBP-tagged PRG-1 PIWI domain (domain or fragment) | – | 349
